According to patent US20120220015A1 (BIOLEX THERAPEUTICS, published 2012):

Tests used:
Test in all cases: cell-based or functional assay
[1] = target: Lemna-derived plasmin from transgenic line BAP12-B2-150 (aglycosylated plasmin derived from mature human … (human, UniProt P00747 97-580; P00747 581-810)
[2] = target: Lemna-derived plasmin from transgenic line BAP01-B2-230 (derived from mature human plasminogen with the … (human, UniProt P00747 97-580)); P00747 581-810, Asn-289 of mature plasminogen (Asn-212 of plasmin) partly N-glycosylated)
[3] = target: human reference plasmin (commercial, human-derived plasmin) (human)
Sequence of human reference plasmin (commercial, human-derived plasmin) (human) (P00747 20-580, chain 1 of 2): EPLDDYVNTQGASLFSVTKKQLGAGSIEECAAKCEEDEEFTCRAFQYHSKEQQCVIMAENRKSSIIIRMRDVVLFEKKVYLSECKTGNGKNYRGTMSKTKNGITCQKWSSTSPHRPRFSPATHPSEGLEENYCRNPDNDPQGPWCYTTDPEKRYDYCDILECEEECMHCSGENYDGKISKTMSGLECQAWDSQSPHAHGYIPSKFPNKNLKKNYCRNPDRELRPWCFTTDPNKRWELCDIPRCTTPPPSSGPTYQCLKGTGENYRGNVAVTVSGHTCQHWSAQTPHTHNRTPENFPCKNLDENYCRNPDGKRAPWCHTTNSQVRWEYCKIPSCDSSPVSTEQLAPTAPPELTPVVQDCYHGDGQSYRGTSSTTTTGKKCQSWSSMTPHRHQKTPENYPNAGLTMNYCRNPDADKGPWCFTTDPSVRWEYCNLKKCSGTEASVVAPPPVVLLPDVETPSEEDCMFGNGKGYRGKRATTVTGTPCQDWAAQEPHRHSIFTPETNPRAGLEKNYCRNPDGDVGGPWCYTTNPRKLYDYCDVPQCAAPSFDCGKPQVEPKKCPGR
Sequence of human reference plasmin (commercial, human-derived plasmin) (human) (P00747 581-810, chain 2 of 2): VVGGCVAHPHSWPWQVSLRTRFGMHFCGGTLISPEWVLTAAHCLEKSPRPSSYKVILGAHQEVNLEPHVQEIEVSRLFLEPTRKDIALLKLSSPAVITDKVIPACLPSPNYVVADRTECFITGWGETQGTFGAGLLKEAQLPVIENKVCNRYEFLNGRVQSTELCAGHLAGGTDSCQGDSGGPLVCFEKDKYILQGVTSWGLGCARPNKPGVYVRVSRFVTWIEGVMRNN

Sequence of Lemna-derived plasmin from transgenic line BAP01-B2-230 (derived from mature human plasminogen with the … (P00747 97-580, form in doubt, chain 1 of 2): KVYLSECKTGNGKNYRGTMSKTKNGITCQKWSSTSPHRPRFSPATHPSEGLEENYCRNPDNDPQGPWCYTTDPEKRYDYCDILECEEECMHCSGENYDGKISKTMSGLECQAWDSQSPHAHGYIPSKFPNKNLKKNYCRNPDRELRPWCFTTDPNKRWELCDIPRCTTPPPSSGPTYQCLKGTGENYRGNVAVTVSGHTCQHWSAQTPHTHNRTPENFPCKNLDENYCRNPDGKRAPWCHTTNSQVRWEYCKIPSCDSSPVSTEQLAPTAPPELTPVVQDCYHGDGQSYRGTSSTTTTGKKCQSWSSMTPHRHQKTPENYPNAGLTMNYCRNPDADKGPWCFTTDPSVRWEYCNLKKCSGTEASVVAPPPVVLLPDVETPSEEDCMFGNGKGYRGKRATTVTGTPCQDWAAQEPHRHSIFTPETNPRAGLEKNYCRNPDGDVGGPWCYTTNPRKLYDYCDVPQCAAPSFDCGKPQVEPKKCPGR
Sequence of Lemna-derived plasmin from transgenic line BAP01-B2-230 (derived from mature human plasminogen with the … (P00747 581-810 I701V, form in doubt, chain 2 of 2): as the sequence (P00747 581-810, chain 2 of 2) above, with I121V counted along it
Sequence of Lemna-derived plasmin from transgenic line BAP12-B2-150 (aglycosylated plasmin derived from mature human … (P00747 97-580 N308D, form in doubt, chain 1 of 2): as the sequence (P00747 97-580, form in doubt, chain 1 of 2) above, with N212D counted along it
Sequence of Lemna-derived plasmin from transgenic line BAP12-B2-150 (aglycosylated plasmin derived from mature human … (P00747 581-810 I701V, form in doubt, chain 2 of 2): as the sequence (P00747 581-810, chain 2 of 2) above, with I121V counted along it

percent of plasmin inhibited, no pre-incubation with α2-AP, molar ratio of 1:1 (S-2403 chromogenic assay) [1]: 60%
percent of plasmin inhibited, no pre-incubation with α2-AP, molar ratio of 1:1 (S-2403 chromogenic assay) [2]: 60%
percent of plasmin inhibited, no pre-incubation with α2-AP, molar ratio of 1:1 (S-2403 chromogenic assay) [3]: ~90%
B1: α2-antiplasmin (other, UniProt P08697 40-491, looked up)
chain: NQEQVSPLTLLKLGNQEPGGQTALKSPPGVCSRDPTPEQTHRLARAMMAFTADLFSLVAQTSTCPNLILSPLSVALALSHLALGAQNHTLQRLQQVLHAGSGPCLPHLLSRLCQDLGPGAFRLAARMYLQKGFPIKEDFLEQSEQLFGAKPVSLTGKQEDDLANINQWVKEATEGKIQEFLSGLPEDTVLLLLNAIHFQGFWRNKFDPSLTQRDSFHLDEQFTVPVEMMQARTYPLRWFLLEQPEIQVAHFPFKNNMSFVVLVPTHFEWNVSQVLANLSWDTLHPPLVWERPTKVRLPKLYLKHQMDLVATLSQLGLQELFQAPDLRGISEQSLVVSGVQHQSTLELSEVGVEAAAATSIAMSRMSLSSFSVNRPFLFFIFEDTTGLPLFVGSVRNPNPSAPRELKEQQDSPGNKDFLQSLKGFPRGDKLFGPDLKLVPPMEEDYPQFGSPK
